Laboratory results published in US6716597 (MIT, dated 2004).

B1: FPPPP-mito (EGFP fused to ActA amino acids 231-610, four EVH1-binding FPPPP repeats and the mitochon (other)
chain: VNASDFPPPPTDEELRLALPETPMLLGFNAPATSEPSSFEFPPPPTDEELRLALPETPMLLGFNAPATSEPSSFEFPPPPTEDELEIIRETASSLDSSFTRGDLASLRNAINRHSQNFSDFPPIPTEEELNGRGGRPTSEEFSSLNSGDFTDDENSETTEEEIDRLADLRDRGTGKHSRNAGFLPLNPFASSPVPSLSPKVSKISAPALISDITKKTPFKNPSQPLNVFNKKTTTKTVTKKPTPVKTAPKLAELPATKPQETVLRENKTPFIEKQAETNKQSINMPSLPVIQKEATESDKEEMKPQTEEKMVEESESANNANGKNRSAGIEEGKLIAKSAEDEKAKEEPGNHTTLILAMLAIGVFSLGAFIKIIQLRKNN
notes: not shown: EGFP (enhanced green fluorescent protein, Clontech); the ActA portion is fused to its C-term
B2: VASP (endogenous, in Rat2 fibroblasts) (other)
chain: ETVICSSRATVMLYDDSNKRWLPAGTGPQAFSRVQIYHNPTANSFRVVGRKLQPDQQVVINCAIIRGVKYNQATPIFHQWRDARQVWGLNFGSKEDAAQFAIGMANALEALEGGGPPPAPAPPAWSTQNGPSPEELEQQKRQPEHLERRVSNAGGPPAPPAGGPPPPPGPPPPPGPPPPPGLPPSGVSGAGHGTGVAPPPAPPLPTAQGPSSGGSGAPGLAAAIAGAKLRKVSKEEASGGPLAPKAENSRGTGGGLMEEMNAMLARRRKATQVGEKPPKDESASQEESEARIPAQSEPVRRPWEKNSTTLPRMKSSSSVTTSEAHPSVPSSSDDSDLERVKQELVEEVRKELQKMKEEIIEVFVQELRKRGSP
notes: whole, on cells; also called vasodilator-stimulated phosphoprotein

What was measured:
[1] = target: T1, p34 component of the Arp2/3 complex (endogenous, in Rat2 fibroblasts) (rat (Rat2 fibroblasts), UniProt P85970 1-300); assay: immunofluorescence in FPPPP-mito Rat2 cells
T1 construct: whole, on cells

[2] = target: T2, vinculin (endogenous, in Rat2 fibroblasts) (rat (Rat2 fibroblasts), UniProt P85972 1-1066); assay: immunofluorescence in FPPPP-mito Rat2 cells
T2 construct: whole, on cells
T2 sequence: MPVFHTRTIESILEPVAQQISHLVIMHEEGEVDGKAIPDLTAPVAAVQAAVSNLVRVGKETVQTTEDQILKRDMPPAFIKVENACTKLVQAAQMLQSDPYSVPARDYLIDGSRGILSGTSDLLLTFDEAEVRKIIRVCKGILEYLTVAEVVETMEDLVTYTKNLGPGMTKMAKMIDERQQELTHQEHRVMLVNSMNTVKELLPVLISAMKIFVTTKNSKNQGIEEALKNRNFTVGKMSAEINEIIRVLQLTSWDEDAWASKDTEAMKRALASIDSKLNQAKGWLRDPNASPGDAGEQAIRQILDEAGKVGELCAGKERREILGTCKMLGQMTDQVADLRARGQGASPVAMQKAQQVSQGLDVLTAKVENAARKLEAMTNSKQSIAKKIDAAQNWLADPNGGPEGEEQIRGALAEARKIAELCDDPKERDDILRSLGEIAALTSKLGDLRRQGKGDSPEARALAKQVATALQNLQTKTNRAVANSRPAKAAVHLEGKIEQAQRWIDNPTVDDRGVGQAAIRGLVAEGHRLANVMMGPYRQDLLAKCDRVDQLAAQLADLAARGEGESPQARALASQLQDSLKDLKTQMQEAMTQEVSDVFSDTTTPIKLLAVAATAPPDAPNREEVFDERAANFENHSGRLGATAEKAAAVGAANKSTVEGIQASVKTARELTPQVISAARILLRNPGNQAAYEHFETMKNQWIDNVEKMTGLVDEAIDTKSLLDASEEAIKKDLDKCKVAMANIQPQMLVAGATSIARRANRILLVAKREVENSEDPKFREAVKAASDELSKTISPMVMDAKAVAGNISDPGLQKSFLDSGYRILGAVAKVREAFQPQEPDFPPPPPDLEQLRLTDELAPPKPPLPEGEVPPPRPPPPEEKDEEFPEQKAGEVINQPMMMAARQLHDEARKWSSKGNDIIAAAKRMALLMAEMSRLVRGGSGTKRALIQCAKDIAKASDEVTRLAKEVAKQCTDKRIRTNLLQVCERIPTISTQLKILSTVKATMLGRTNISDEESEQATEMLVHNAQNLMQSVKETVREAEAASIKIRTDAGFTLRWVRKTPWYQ

[3] = target: B1; assay: immunofluorescence co-localisation in Rat2 cells expressing the construct
[4] = target: B2; assay: immunofluorescence in Rat2 cells expressing the construct

B1: no binding [1]; no binding [2].

B2: binds [3].

B3: FPPPP-cyto (EGFP fused to ActA amino acids 231-360, without the mitochondrial targeting sequence) (other)
chain: VNASDFPPPPTDEELRLALPETPMLLGFNAPATSEPSSFEFPPPPTDEELRLALPETPMLLGFNAPATSEPSSFEFPPPPTEDELEIIRETASSLDSSFTRGDLASLRNAINRHSQNFSDFPPIPTEEEL
notes: not shown: EGFP (enhanced green fluorescent protein, Clontech)
B3: binds [4].
